Common to all, as to assay: BLI; kinetics: FGFRs-Fc (25 μg/mL) immobilised on Protein-A sensors, galectins 0.2-6 μM; heterogeneous ligand (2:1) model
What all share (conditions): both partners purified
(Biolayer interferometry detects binding as a change in optical thickness at a sensor tip.)

Test [1] concerns the target T1, extracellular region of FGFR1 fused to the Fc fragment of human IgG1 (human, UniProt P11362 22-376, N-glycosylated (eight N-glycosylation sites)).
T1 construct: FGFR1, extracellular region with domains D1, D2 and D3; also called FGFR1-Fc; FGFR1.Fc; source: CHO cells, purified (Protein A Sepharose)
T1 sequence (looked up): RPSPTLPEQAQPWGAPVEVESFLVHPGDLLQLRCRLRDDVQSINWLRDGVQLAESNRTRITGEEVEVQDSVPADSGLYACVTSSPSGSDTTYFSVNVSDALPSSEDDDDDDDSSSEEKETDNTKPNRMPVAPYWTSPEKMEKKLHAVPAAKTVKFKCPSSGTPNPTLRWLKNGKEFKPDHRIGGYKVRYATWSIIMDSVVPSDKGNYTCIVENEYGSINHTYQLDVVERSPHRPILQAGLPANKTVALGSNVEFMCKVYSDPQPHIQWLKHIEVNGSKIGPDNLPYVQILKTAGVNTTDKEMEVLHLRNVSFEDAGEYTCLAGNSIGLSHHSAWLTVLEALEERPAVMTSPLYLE

Test [2] addresses T2, extracellular region of FGFR2 fused to the Fc fragment of human IgG1 (human, UniProt P21802 22-377, N-glycosylated (eight putative N-glycosylation sites)).
T2 construct: FGFR2, extracellular region; also called FGFR2-Fc; source: CHO cells, purified (Protein A Sepharose)

Test [3] deals with T3, extracellular region of FGFR3 fused to the Fc fragment of human IgG1 (human, UniProt P22607 23-375, N-glycosylated (six putative N-glycosylation sites)).
T3 construct: FGFR3, extracellular region; also called FGFR3-Fc; source: CHO cells, purified (Protein A Sepharose)
T3 sequence (looked up): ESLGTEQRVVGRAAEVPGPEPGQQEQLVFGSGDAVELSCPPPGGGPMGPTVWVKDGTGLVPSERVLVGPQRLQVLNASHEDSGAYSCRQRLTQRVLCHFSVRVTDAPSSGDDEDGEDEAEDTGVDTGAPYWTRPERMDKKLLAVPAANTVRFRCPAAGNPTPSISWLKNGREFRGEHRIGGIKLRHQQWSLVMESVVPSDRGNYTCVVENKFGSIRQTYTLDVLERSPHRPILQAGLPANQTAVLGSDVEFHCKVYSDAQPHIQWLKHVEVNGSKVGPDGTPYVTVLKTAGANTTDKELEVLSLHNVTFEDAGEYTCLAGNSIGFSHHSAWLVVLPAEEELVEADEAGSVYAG

Test [4] concerns the target T4, extracellular region of FGFR4 fused to the Fc fragment of human IgG1 (human, UniProt P22455 22-369, N-glycosylated (five putative N-glycosylation sites)).
T4 construct: FGFR4, extracellular region; also called FGFR4-Fc; source: CHO cells, purified (Protein A Sepharose)
T4 sequence (looked up): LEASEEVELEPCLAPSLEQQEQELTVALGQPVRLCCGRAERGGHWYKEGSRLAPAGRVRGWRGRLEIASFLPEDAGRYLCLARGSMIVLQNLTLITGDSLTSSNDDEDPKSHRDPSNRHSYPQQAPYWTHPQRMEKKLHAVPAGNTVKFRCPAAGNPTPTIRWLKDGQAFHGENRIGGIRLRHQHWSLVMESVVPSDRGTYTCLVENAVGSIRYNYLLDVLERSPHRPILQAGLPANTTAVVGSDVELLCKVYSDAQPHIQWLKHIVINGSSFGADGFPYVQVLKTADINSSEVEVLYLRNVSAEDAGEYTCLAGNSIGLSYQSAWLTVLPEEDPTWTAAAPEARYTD

T2 sequence (P21802 22-377): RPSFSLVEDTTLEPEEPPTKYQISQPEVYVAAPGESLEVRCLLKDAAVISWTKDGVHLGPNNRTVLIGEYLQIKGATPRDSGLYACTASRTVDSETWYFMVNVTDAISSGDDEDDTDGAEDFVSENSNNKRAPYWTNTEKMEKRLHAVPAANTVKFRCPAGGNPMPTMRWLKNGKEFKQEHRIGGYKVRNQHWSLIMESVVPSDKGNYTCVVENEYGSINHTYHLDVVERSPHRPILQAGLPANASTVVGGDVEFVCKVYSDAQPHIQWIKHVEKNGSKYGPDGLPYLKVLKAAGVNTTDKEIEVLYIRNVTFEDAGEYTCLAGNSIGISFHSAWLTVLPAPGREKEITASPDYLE

B1: N-terminal carbohydrate recognition domain of galectin-8 fused to the AviTag (domain or fragment, human, UniProt O00214 1-152, looked up)
chain: MMLSLNNLQNIIYNPVIPFVGTIPDQLDPGTLIVIRGHVPSDADRFQVDLQNGSSMKPRADVAFHFNPRFKRAGCIVCNTLINEKWGREEITYDTPFKREKSFEIVIMVLKDKFQVAVNGKHTLLYGHRIGPEKIDTLGIYGKVNIHSIGFS
notes: galectin-8, human, N-CRD, residues Met1-Ser152; also called gal-8N-CRD; gal-8_(N-CRD); source: E. coli BL21(DE3) pLysS, purified (Ni-NTA); not shown: AviTag, C-terminal, kept
As to B1, in test [1], the KD1 is 2.6 µM, the KD2 was found to be 17 nM, the Koff1 was 0.164 s⁻¹ and the Koff2 was found to be 0.000194 s⁻¹. In test [1], this molecule had a Kon1 of 165000 M⁻¹ s⁻¹ and a Kon2 of 429000 M⁻¹ s⁻¹.

B2: galectin-8 (natural protein, human, UniProt O00214 1-317, looked up)
chain: MMLSLNNLQNIIYNPVIPFVGTIPDQLDPGTLIVIRGHVPSDADRFQVDLQNGSSMKPRADVAFHFNPRFKRAGCIVCNTLINEKWGREEITYDTPFKREKSFEIVIMVLKDKFQVAVNGKHTLLYGHRIGPEKIDTLGIYGKVNIHSIGFSFSSDLQSTQASSLELTEISRENVPKSGTPQLRLPFAARLNTPMGPGRTVVVKGEVNANAKSFNVDLLAGKSKDIALHLNPRLNIKAFVRNSFLQESWGEEERNITSFPFSPGMYFEMIIYCDVREFKVAVNGVHSLEYKHRFKELSSIDTLEINGDIHLLEVRSW
notes: galectin-8, human; the C-CRD construct ends at Trp317, which fits the form of 317 residues; also called gal-8; full-length galectin-8; source: E. coli BL21 CodonPlus(DE3)-RIL, purified (Ni-NTA); not shown: His tag, N-terminal, kept
In test [1], B2 displayed a KD1 of 0.95 µM, a KD2 of 194 nM, a Koff1 of 0.0225 s⁻¹ and a Koff2 of 0.000766 s⁻¹. Besides, in test [1], the Kon1 is 25200 M⁻¹ s⁻¹ and the Kon2 came out at 8820 M⁻¹ s⁻¹. In test [2], this molecule displayed a KD1 of 3.8 µM, a KD2 of 141 nM, a Koff1 of 0.0312 s⁻¹ and a Koff2 of 0.00493 s⁻¹. For the same molecule, in test [2], the Kon1 is 13200 M⁻¹ s⁻¹ and the Kon2 came out at 35100 M⁻¹ s⁻¹. Also, in test [3], the KD1 worked out at 174 nM, the KD2 is 63 nM, the Koff1 stood at 0.0289 s⁻¹ and the Koff2 was 0.000855 s⁻¹. In test [3], this molecule gave a Kon1 of 167000 M⁻¹ s⁻¹ and a Kon2 of 14500 M⁻¹ s⁻¹. In test [4], the KD1 worked out at 24.3 nM, the KD2 is 249 nM, the Koff1 came out at 0.000929 s⁻¹ and the Koff2 came out at 0.0161 s⁻¹. In test [4], this molecule had a Kon1 of 38700 M⁻¹ s⁻¹ and a Kon2 of 65100 M⁻¹ s⁻¹.

The record behind these values is PMC10070233 (Cellular and Molecular Life Sciences: CMLS, 2023).
